{
  "source": "patent US20190071487A1",
  "about": "(Memorial Sloan Kettering, published 2019)",
  "binders": {"B1": {"name": "Leu39-Val202 soluble HVEM ectodomain polypeptide (receptor)", "chain": "LPSCKEDEYPVGSECCPKCSPGYRVKEACGELTGTVCEPCPPGTYIAHLNGLSKCLQCQMCDPAMGLRASRNCSRTENAVCGCSPGHFCIVQDGDHCAACRAYATSSPGQRVQKGGTESQDTLCQNCPPGTFSPNGTLEECQHQTKCSWLVTKAGAGTSSSHWV"}},
  "molecular_target": "BTLA (B and T lymphocyte attenuator) on human lymphoma B cells (human, UniProt Q7Z6A9 31-289)",
  "test": "cell-based or functional assay",
  "data": [
    {"binder": "B1", "values": [
      {"measurement": "correlation of percent pSyk inhibition by solHVEM with BTLA surface expression (ratio of MFI), ten primary human FL B cell samples", "result": 0.697, "unit": "r"}
    ]}
  ]
}
